Assays:
[1] = target: T1, GST-fused Cα-subunit of mouse PKA (GST-PKAC) (mouse, UniProt P05132 1-351); experiment: pull-down
[2] = target: T1, GST-fused Cα-subunit of mouse PKA …; experiment: pull-down; remark: listed apart in the source

IC50 [1]: 880 nM
Kd [2]: < 1000 nM
B1: His8-DCRD-Myc (domain or fragment)
chain: RQFHGSASSLVEAVLISEGLGQFAQDPKFIEVTTQELADACDLTIEEMENAADDILSGGARQS

Reference: publication doi:10.1101/2023.11.28.564875 (bioRxiv, 2023)
